{"source": "paper PMC12867984", "about": "“Functional assessment of protein variants in structured domains by fluorescence cross-correlation spectroscopy” (Scientific Reports, 2026)", "conditions_in_all_cases": "partners not purified", "key": {"mCherry-RBBP8": {"target": "T1, mCherry-RBBP8 (UniProt Q99708 1-897)", "T1 construct": "also called mCherry-RBBP8/CtIP; CtIP; source: HeLa, transfected, in live cells and in lysate", "T1 sequence (Q99708 whole entry)": "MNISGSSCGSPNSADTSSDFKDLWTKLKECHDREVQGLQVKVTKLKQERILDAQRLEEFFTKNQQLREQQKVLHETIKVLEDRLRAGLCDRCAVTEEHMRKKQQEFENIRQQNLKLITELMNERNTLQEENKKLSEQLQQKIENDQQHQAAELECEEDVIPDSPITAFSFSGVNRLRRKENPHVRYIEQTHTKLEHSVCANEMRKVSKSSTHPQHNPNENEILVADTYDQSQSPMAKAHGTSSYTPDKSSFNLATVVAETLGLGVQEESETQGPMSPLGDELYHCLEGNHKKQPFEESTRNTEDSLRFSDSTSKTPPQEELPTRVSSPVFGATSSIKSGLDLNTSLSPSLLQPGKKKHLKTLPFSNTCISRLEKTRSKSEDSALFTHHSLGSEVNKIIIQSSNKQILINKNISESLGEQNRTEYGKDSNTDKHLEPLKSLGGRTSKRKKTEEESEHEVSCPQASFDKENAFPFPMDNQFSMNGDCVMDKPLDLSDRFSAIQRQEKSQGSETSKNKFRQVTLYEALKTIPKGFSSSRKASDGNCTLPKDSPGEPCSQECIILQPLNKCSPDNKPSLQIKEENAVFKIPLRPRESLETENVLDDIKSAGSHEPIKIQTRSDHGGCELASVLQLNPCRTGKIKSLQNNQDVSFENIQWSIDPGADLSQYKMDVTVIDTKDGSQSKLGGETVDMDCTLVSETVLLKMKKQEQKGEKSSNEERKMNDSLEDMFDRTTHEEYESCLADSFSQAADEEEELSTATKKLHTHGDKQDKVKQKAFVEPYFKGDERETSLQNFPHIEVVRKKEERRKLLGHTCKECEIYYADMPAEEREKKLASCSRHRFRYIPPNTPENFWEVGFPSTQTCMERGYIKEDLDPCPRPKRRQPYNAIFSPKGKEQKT", "assay": "fluorescence cross-correlation spectroscopy (FCCS); GFP- and mCherry-tagged proteins co-expressed in live HeLa cells; focal volume in the nucleoplasm (MSH2-MSH6 also in the cytoplasm); room temperature; cross-correlation/autocorrelation ratio"}, "mCherry-BARD1": {"target": "T2, mCherry-BARD1 (UniProt Q99728 1-777)", "T2 construct": "also called BRCA1 Associated RING Domain 1; source: HeLa, transfected, in live cells and in lysate", "T2 sequence (looked up)": "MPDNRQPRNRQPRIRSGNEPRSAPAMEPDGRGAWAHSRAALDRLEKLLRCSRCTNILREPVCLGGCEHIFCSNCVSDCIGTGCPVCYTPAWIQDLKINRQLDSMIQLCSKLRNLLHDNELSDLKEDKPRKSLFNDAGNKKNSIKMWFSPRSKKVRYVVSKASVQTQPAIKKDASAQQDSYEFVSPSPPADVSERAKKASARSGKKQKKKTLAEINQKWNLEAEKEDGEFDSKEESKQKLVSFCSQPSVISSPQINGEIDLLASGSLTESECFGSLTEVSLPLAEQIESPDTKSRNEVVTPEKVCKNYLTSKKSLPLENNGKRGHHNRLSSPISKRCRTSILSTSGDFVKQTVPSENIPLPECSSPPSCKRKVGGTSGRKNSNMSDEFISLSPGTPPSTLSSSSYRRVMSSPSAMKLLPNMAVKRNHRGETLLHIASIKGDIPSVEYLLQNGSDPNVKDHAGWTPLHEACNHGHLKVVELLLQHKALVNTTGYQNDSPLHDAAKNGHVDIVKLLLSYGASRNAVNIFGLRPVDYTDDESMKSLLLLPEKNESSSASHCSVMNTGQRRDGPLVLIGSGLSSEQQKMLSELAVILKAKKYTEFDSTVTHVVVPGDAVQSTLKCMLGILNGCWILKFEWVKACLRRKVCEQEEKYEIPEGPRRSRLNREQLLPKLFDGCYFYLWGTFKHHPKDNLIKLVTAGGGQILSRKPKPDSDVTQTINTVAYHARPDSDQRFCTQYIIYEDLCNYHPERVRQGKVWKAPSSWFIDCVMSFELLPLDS", "assay": "fluorescence cross-correlation spectroscopy (FCCS); lysate of co-transfected HeLa cells; 20 mM Tris-HCl pH 7.5, 140 mM KCl, 1.5 mM MgCl2, 1 mM DTT, 0.5% NP-40; lysed at room temperature; cross-correlation/autocorrelation ratio"}, "mCherry-JUND": {"target": "T3, mCherry-JUND (UniProt P17535 1-347)", "T3 construct": "JUND; the construct is not described in the methods; also called JunD Proto-Oncogene; source: HeLa, transfected, in lysate", "T3 sequence (looked up)": "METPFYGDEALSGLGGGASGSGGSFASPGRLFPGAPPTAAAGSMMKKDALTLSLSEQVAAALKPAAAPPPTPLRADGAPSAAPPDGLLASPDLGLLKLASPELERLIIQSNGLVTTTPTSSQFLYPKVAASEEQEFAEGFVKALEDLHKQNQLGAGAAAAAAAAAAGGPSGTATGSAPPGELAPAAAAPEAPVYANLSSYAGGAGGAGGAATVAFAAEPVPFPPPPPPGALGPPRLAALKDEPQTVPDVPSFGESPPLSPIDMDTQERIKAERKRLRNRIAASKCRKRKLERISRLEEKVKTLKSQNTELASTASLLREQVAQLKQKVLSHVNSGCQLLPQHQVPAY", "assay": "fluorescence cross-correlation spectroscopy (FCCS); lysate of co-transfected HeLa cells; 20 mM Tris-HCl pH 7.5, 140 mM KCl, 1.5 mM MgCl2, 1 mM DTT, 0.5% NP-40; lysed at room temperature; cross-correlation/autocorrelation ratio"}}}
{"binder": "GFP-BRCA1 p.Thr1684Ala (natural protein, UniProt P38398 1-1863, looked up, also called T1684A; source: HeLa, transfected, in live cells) MDLSALRVEEVQNVINAMQKILECPICLELIKEPVSTKCDHIFCKFCMLKLLNQKKGPSQCPLCKNDITKRSLQESTRFSQLVEELLKIICAFQLDTGLEYANSYNFAKKENNSPEHLKDEVSIIQSMGYRNRAKRLLQSEPENPSLQETSLSVQLSNLGTVRTLRTKQRIQPQKTSVYIELGSDSSEDTVNKATYCSVGDQELLQITPQGTRDEISLDSAKKAACEFSETDVTNTEHHQPSNNDLNTTEKRAAERHPEKYQGSSVSNLHVEPCGTNTHASSLQHENSSLLLTKDRMNVEKAEFCNKSKQPGLARSQHNRWAGSKETCNDRRTPSTEKKVDLNADPLCERKEWNKQKLPCSENPRDTEDVPWITLNSSIQKVNEWFSRSDELLGSDDSHDGESESNAKVADVLDVLNEVDEYSGSSEKIDLLASDPHEALICKSERVHSKSVESNIEDKIFGKTYRKKASLPNLSHVTENLIIGAFVTEPQIIQERPLTNKLKRKRRPTSGLHPEDFIKKADLAVQKTPEMINQGTNQTEQNGQVMNITNSGHENKTKGDSIQNEKNPNPIESLEKESAFKTKAEPISSSISNMELELNIHNSKAPKKNRLRRKSSTRHIHALELVVSRNLSPPNCTELQIDSCSSSEEIKKKKYNQMPVRHSRNLQLMEGKEPATGAKKSNKPNEQTSKRHDSDTFPELKLTNAPGSFTKCSNTSELKEFVNPSLPREEKEEKLETVKVSNNAEDPKDLMLSGERVLQTERSVESSSISLVPGTDYGTQESISLLEVSTLGKAKTEPNKCVSQCAAFENPKGLIHGCSKDNRNDTEGFKYPLGHEVNHSRETSIEMEESELDAQYLQNTFKVSKRQSFAPFSNPGNAEEECATFSAHSGSLKKQSPKVTFECEQKEENQGKNESNIKPVQTVNITAGFPVVGQKDKPVDNAKCSIKGGSRFCLSSQFRGNETGLITPNKHGLLQNPYRIPPLFPIKSFVKTKCKKNLLEENFEEHSMSPEREMGNENIPSTVSTISRNNIRENVFKEASSSNINEVGSSTNEVGSSINEIGSSDENIQAELGRNRGPKLNAMLRLGVLQPEVYKQSLPGSNCKHPEIKKQEYEEVVQTVNTDFSPYLISDNLEQPMGSSHASQVCSETPDDLLDDGEIKEDTSFAENDIKESSAVFSKSVQKGELSRSPSPFTHTHLAQGYRRGAKKLESSEENLSSEDEELPCFQHLLFGKVNNIPSQSTRHSTVATECLSKNTEENLLSLKNSLNDCSNQVILAKASQEHHLSEETKCSASLFSSQCSELEDLTANTNTQDPFLIGSSKQMRHQSESQGVGLSDKELVSDDEERGTGLEENNQEEQSMDSNLGEAASGCESETSVSEDCSGLSSQSDILTTQQRDTMQHNLIKLQQEMAELEAVLEQHGSQPSNSYPSIISDSSALEDLRNPEQSTSEKAVLTSQKSSEYPISQNPEGLSADKFEVSADSSTSKNKEPGVERSSPSKCPSLDDRWYMHSCSGSLQNRNYPSQEELIKVVDVEEQQLEESGPHDLTETSYLPRQDLEGTPYLESGISLFSDDPESDPSEDRAPESARVGNIPSSTSALKVPQLKVAESAQSPAAAHTTDTAGYNAMEESVSREKPELTASTERVNKRMSMVVSGLTPEEFMLVYKFARKHHITLTNLITEEATHVVMKTDAEFVCERTLKYFLGIAGGKWVVSYFWVTQSIKERKMLNEHDFEVRGDVVNGRNHQGPKRARESQDRKIFRGLEICCYGPFTNMPTDQLEWMVQLCGASVVKELSSFTLGTGVHPIVVVQPDAWTEDNGFHAIGQMCEAPVVTREWVLDSVALYQCQELDTYLIPQIPHSHY", "values": [{"measurement": "reduction in binding relative to wild type", "setting": "mCherry-RBBP8", "result": "~50", "unit": "%"}]}
{"binder": "GFP-RING (isolated BRCA1 RING domain, wild-type) (domain or fragment, UniProt P38398 1-109, looked up, BRCA1 amino acids 1-109 cloned into pEGFP-C1; also called EGFP-tagged RING trimmed domain; wild-type RING; source: HeLa, transfected, in lysate) MDLSALRVEEVQNVINAMQKILECPICLELIKEPVSTKCDHIFCKFCMLKLLNQKKGPSQCPLCKNDITKRSLQESTRFSQLVEELLKIICAFQLDTGLEYANSYNFAK", "values": [{"measurement": "cross-correlation", "setting": "mCherry-BARD1", "result": 25, "unit": "%"}]}
{"binder": "GFP-RING D67Y (domain or fragment, UniProt P38398 1-109, looked up, BRCA1 amino acids 1-109 with the variant; also called D67Y variant (isolated RING domain); source: HeLa, transfected, in lysate) MDLSALRVEEVQNVINAMQKILECPICLELIKEPVSTKCDHIFCKFCMLKLLNQKKGPSQCPLCKNYITKRSLQESTRFSQLVEELLKIICAFQLDTGLEYANSYNFAK", "values": [{"measurement": "reduction in binding relative to wild type", "setting": "mCherry-BARD1", "result": 22, "unit": "%"}]}
{"binder": "GFP-RING-T37K (domain or fragment, UniProt P38398 1-109, looked up, BRCA1 amino acids 1-109 with the variant; source: HeLa, transfected, in lysate) MDLSALRVEEVQNVINAMQKILECPICLELIKEPVSKKCDHIFCKFCMLKLLNQKKGPSQCPLCKNDITKRSLQESTRFSQLVEELLKIICAFQLDTGLEYANSYNFAK", "values": [{"measurement": "reduction in binding relative to wild type", "setting": "mCherry-BARD1", "result": 20, "unit": "%"}]}
{"binder": "GFP-RING-T37R (domain or fragment, UniProt P38398 1-109, looked up, BRCA1 amino acids 1-109 with the variant; also called p.Thr37Arg; source: HeLa, transfected, in lysate) MDLSALRVEEVQNVINAMQKILECPICLELIKEPVSRKCDHIFCKFCMLKLLNQKKGPSQCPLCKNDITKRSLQESTRFSQLVEELLKIICAFQLDTGLEYANSYNFAK", "values": [{"measurement": "reduction in binding relative to wild type", "setting": "mCherry-BARD1", "result": 30, "unit": "%"}]}
{"binder": "GFP-Menin (natural protein, UniProt O00255 1-610, looked up, Menin (MEN1); the construct and its isoform are not described in the methods; also called MEN1 factor Menin; source: HeLa, transfected, in lysate) MGLKAAQKTLFPLRSIDDVVRLFAAELGREEPDLVLLSLVLGFVEHFLAVNRVIPTNVPELTFQPSPAPDPPGGLTYFPVADLSIIAALYARFTAQIRGAVDLSLYPREGGVSSRELVKKVSDVIWNSLSRSYFKDRAHIQSLFSFITGTKLDSSGVAFAVVGACQALGLRDVHLALSEDHAWVVFGPNGEQTAEVTWHGKGNEDRRGQTVNAGVAERSWLYLKGSYMRCDRKMEVAFMVCAINPSIDLHTDSLELLQLQQKLLWLLYDLGHLERYPMALGNLADLEELEPTPGRPDPLTLYHKGIASAKTYYRDEHIYPYMYLAGYHCRNRNVREALQAWADTATVIQDYNYCREDEEIYKEFFEVANDVIPNLLKEAASLLEAGEERPGEQSQGTQSQGSALQDPECFAHLLRFYDGICKWEEGSPTPVLHVGWATFLVQSLGRFEGQVRQKVRIVSREAEAAEAEEPWGEEAREGRRRGPRRESKPEEPPPPKKPALDKGLGTGQGAVSGPPRKPPGTVAGTARGPEGGSTAQVPAPTASPPPEGPVLTFQSEKMKGMKELLVATKINSSAIKLQLTAQSQVQMKKQKVSTPSDYTLSFLKRQRKGL", "values": [{"measurement": "cross-correlation", "setting": "mCherry-JUND", "result": 21, "unit": "%"}]}
{"binder": "GFP-Menin A237V (natural protein, UniProt O00255 1-610, looked up, Menin (MEN1) with the variant; construct and isoform not described; source: HeLa, transfected, in lysate) MGLKAAQKTLFPLRSIDDVVRLFAAELGREEPDLVLLSLVLGFVEHFLAVNRVIPTNVPELTFQPSPAPDPPGGLTYFPVADLSIIAALYARFTAQIRGAVDLSLYPREGGVSSRELVKKVSDVIWNSLSRSYFKDRAHIQSLFSFITGTKLDSSGVAFAVVGACQALGLRDVHLALSEDHAWVVFGPNGEQTAEVTWHGKGNEDRRGQTVNAGVAERSWLYLKGSYMRCDRKMEVVFMVCAINPSIDLHTDSLELLQLQQKLLWLLYDLGHLERYPMALGNLADLEELEPTPGRPDPLTLYHKGIASAKTYYRDEHIYPYMYLAGYHCRNRNVREALQAWADTATVIQDYNYCREDEEIYKEFFEVANDVIPNLLKEAASLLEAGEERPGEQSQGTQSQGSALQDPECFAHLLRFYDGICKWEEGSPTPVLHVGWATFLVQSLGRFEGQVRQKVRIVSREAEAAEAEEPWGEEAREGRRRGPRRESKPEEPPPPKKPALDKGLGTGQGAVSGPPRKPPGTVAGTARGPEGGSTAQVPAPTASPPPEGPVLTFQSEKMKGMKELLVATKINSSAIKLQLTAQSQVQMKKQKVSTPSDYTLSFLKRQRKGL", "values": [{"measurement": "binding relative to wild type", "setting": "mCherry-JUND", "result": "~50", "unit": "%"}]}
{"binder": "GFP-Menin A242V (natural protein, UniProt O00255 1-610, looked up, Menin (MEN1) with the variant; construct and isoform not described; source: HeLa, transfected, in lysate) MGLKAAQKTLFPLRSIDDVVRLFAAELGREEPDLVLLSLVLGFVEHFLAVNRVIPTNVPELTFQPSPAPDPPGGLTYFPVADLSIIAALYARFTAQIRGAVDLSLYPREGGVSSRELVKKVSDVIWNSLSRSYFKDRAHIQSLFSFITGTKLDSSGVAFAVVGACQALGLRDVHLALSEDHAWVVFGPNGEQTAEVTWHGKGNEDRRGQTVNAGVAERSWLYLKGSYMRCDRKMEVAFMVCVINPSIDLHTDSLELLQLQQKLLWLLYDLGHLERYPMALGNLADLEELEPTPGRPDPLTLYHKGIASAKTYYRDEHIYPYMYLAGYHCRNRNVREALQAWADTATVIQDYNYCREDEEIYKEFFEVANDVIPNLLKEAASLLEAGEERPGEQSQGTQSQGSALQDPECFAHLLRFYDGICKWEEGSPTPVLHVGWATFLVQSLGRFEGQVRQKVRIVSREAEAAEAEEPWGEEAREGRRRGPRRESKPEEPPPPKKPALDKGLGTGQGAVSGPPRKPPGTVAGTARGPEGGSTAQVPAPTASPPPEGPVLTFQSEKMKGMKELLVATKINSSAIKLQLTAQSQVQMKKQKVSTPSDYTLSFLKRQRKGL", "values": [{"measurement": "binding relative to wild type", "setting": "mCherry-JUND", "result": "~50", "unit": "%"}]}
